How the values were obtained:
PARP1-ΔZn1ΔZn2 [1] = biological target: T1, PARP1-ΔZn1ΔZn2 (human, UniProt P09874 216-1014); assay: EMSA; monomer-equivalent K, n=2.16±0.19; 25 mM Tris pH 7.5, 75 mM NaCl, 50 mM arginine, 0.1 mM TCEP, 0.1 ug/ul BSA, room temperature 30 min; 0.05 uM probe, 0-2.5 uM protein; native 10% PAGE in TBE; details: protein: recombinant; tags: His; chain copies: 2; label: 32P; single strand
PARP1-FL [2] = biological target: T2, PARP1-FL (human, UniProt P09874 1-1014); assay: EMSA; monomer-equivalent K, n=2.17±0.15; 25 mM Tris pH 7.5, 75 mM NaCl, 50 mM arginine, 0.1 mM TCEP, 0.1 ug/ul BSA, room temperature 30 min; 0.05 uM probe, 0-2.5 uM protein; native 10% PAGE in TBE; details: protein: recombinant; tags: His; chain copies: 2; label: 32P; single strand
PARP1-ΔCAT [3] = biological target: T3, PARP1-ΔCAT (human, UniProt P09874 1-662); assay: EMSA; monomer-equivalent K, n=2.77±0.13; 25 mM Tris pH 7.5, 75 mM NaCl, 50 mM arginine, 0.1 mM TCEP, 0.1 ug/ul BSA, room temperature 30 min; 0.05 uM probe, 0-2.5 uM protein; native 10% PAGE in TBE; details: protein: recombinant; tags: His; chain copies: 2; label: 32P; single strand
PARP1-FL [4] = biological target: T2, PARP1-FL; assay: EMSA; monomer-equivalent K, n=1.70±0.14; 25 mM Tris pH 7.5, 75 mM NaCl, 50 mM arginine, 0.1 mM TCEP, 0.1 ug/ul BSA, room temperature 30 min; 0.05 uM probe, 0-2.5 uM protein; native 10% PAGE in TBE; details: protein: recombinant; tags: His; chain copies: 2; label: 32P; single strand
PARP1-ΔCAT [5] = biological target: T3, PARP1-ΔCAT; assay: EMSA; monomer-equivalent K, n=2.04±0.13; 25 mM Tris pH 7.5, 75 mM NaCl, 50 mM arginine, 0.1 mM TCEP, 0.1 ug/ul BSA, room temperature 30 min; 0.05 uM probe, 0-2.5 uM protein; native 10% PAGE in TBE; details: protein: recombinant; tags: His; chain copies: 2; label: 32P; single strand
PARP1-ΔZn1ΔZn2 [6] = biological target: T1, PARP1-ΔZn1ΔZn2; assay: EMSA; monomer-equivalent K, n=2.04±0.15; 25 mM Tris pH 7.5, 75 mM NaCl, 50 mM arginine, 0.1 mM TCEP, 0.1 ug/ul BSA, room temperature 30 min; 0.05 uM probe, 0-2.5 uM protein; native 10% PAGE in TBE; details: protein: recombinant; tags: His; chain copies: 2; label: 32P; single strand
PARP1-ΔZn1ΔZn2 [7] = biological target: T1, PARP1-ΔZn1ΔZn2; assay: competition EMSA; vs N1 in same reaction; 25 mM Tris pH 7.5, 75 mM NaCl, 50 mM arginine, 0.1 mM TCEP, 0.1 ug/ul BSA, room temperature 30 min; 0.05 uM probe, 0-2.5 uM protein; native 10% PAGE in TBE; details: protein: recombinant; tags: His; chain copies: 2; label: 32P; single strand
PARP1-FL [8] = biological target: T2, PARP1-FL; assay: as above; details: protein: recombinant; tags: His; label: 32P; single strand
PARP1-ΔCAT [9] = biological target: T3, PARP1-ΔCAT; assay: as above; details: protein: recombinant; tags: His; chain copies: 2; label: 32P; single strand

T3 sequence (P09874 1-662, stated change not applied): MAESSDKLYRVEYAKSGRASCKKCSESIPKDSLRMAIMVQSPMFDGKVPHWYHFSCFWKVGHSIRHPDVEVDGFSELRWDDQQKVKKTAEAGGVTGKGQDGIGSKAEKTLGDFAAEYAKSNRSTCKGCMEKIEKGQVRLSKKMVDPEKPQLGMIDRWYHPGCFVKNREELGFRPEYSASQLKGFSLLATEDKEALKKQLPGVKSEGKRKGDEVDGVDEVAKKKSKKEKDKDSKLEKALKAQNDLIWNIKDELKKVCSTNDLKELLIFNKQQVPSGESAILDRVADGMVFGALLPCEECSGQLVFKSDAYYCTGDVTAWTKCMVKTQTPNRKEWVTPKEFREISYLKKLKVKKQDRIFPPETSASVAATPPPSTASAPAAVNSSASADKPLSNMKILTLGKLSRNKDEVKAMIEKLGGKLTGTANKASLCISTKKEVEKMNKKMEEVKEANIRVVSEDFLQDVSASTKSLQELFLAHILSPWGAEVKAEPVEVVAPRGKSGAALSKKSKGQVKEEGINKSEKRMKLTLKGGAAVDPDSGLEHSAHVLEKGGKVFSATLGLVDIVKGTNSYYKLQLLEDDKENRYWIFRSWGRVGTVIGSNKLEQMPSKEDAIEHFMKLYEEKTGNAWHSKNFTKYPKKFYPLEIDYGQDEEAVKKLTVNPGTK
T1 sequence (P09874 216-1014, stated change not applied): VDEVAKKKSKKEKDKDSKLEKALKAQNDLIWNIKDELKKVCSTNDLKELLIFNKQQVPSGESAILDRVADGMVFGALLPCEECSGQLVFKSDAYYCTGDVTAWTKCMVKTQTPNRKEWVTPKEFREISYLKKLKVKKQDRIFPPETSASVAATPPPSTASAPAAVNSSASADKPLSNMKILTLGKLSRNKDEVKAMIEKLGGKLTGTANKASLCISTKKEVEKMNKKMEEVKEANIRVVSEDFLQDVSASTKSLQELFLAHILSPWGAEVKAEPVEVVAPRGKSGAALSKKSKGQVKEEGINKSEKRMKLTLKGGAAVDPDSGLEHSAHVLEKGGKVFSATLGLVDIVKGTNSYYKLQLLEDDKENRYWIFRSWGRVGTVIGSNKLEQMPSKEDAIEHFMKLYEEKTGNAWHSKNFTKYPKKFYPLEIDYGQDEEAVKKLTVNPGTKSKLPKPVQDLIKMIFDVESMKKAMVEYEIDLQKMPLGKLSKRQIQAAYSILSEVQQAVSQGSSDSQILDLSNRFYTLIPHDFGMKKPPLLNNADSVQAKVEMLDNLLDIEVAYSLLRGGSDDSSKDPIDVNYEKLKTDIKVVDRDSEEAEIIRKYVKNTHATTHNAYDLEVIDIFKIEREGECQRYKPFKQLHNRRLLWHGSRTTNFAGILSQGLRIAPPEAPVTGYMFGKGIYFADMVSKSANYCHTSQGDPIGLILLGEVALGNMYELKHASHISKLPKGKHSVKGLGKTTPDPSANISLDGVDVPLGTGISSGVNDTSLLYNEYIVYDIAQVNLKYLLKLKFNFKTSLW
T2 sequence (P09874 whole entry): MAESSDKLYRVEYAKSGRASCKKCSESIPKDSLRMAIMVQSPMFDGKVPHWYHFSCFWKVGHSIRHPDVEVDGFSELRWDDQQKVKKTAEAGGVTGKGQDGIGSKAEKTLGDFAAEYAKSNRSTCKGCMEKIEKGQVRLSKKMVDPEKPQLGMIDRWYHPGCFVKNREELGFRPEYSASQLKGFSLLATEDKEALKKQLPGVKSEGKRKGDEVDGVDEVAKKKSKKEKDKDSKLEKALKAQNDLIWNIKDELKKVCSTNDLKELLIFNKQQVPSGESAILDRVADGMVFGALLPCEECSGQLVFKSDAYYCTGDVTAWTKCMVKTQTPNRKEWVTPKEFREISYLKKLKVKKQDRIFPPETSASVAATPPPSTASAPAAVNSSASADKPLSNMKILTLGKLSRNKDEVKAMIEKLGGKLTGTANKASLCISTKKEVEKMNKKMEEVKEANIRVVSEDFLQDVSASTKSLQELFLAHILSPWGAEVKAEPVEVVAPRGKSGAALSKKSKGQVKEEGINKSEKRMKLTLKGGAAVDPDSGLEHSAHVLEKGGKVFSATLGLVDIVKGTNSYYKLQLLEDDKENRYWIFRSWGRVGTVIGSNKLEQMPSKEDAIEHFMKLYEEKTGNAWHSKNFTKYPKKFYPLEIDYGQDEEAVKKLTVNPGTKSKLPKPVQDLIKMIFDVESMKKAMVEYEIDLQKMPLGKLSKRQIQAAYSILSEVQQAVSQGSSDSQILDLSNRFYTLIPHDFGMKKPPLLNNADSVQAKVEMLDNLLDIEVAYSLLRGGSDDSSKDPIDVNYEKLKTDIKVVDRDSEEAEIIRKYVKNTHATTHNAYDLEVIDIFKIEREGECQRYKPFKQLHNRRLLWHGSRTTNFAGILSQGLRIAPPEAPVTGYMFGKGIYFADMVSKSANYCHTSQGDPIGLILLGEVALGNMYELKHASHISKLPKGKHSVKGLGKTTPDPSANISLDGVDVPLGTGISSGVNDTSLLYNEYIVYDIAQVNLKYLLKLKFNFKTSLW

## CGUACGCGGAAUAGUUUAAACUGU (ssRNA) [24-mer ssRNA]
PARP1-ΔZn1ΔZn2 [1]
  Ka: 1.91e+06 M⁻¹
PARP1-FL [2]
  Ka: 2.88e+06 M⁻¹
PARP1-ΔCAT [3]
  Ka: 2.91e+06 M⁻¹

## CCGUACGCGGGUUUAAACGA (ssRNA) [20-mer ssRNA]
PARP1-FL [4]
  Ka: 2.43e+06 M⁻¹
PARP1-ΔCAT [5]
  Ka: 770000 M⁻¹
PARP1-ΔZn1ΔZn2 [6]
  Ka: 1.13e+06 M⁻¹

## TAGGCACCGGCATCTTGAC (ssDNA) [19-mer ssDNA]
PARP1-ΔZn1ΔZn2 [7]
  binding signal: 0.0153 ± 0.021 KDNA/KRNA
PARP1-FL [8]
  binding signal: 25.3 ± 3 KDNA/KRNA
PARP1-ΔCAT [9]
  binding signal: 15.7 ± 3.9 KDNA/KRNA

Source: article PMC5787697, “Transcriptome-wide identification of the RNA-binding landscape of the chromatin-associated protein PARP1 reveals functions in RNA biogenesis”
